Numbering of substitutions follows the chain as printed. Names and notes keep the numbering of the source.
Columns and labels:
[1] = target: the molecule itself; assay: SAXS; steady state, fully populated light state (continuous blue-light LED, 450 nm); beamline BM29; 20°C; 10 mM Tris, 10 mM NaCl, pH 7; data of 2.5 and 6.1 mg/mL merged; molecular mass from QR after Rambo and Tainer
[2] = target: the molecule itself; assay: crystal structure; dark-state crystal structure of the double mutant, FMN bound (PDB 6GG9)

B1: PpSB1-LOV-R66I (natural protein, Pseudomonas putida)
chain: MINAQLLQSMVDASNDGIVVAEKEGDDTILIYVNAAFEYLTGYSRDEILYQDCRFLQGDDRDQLGIARIRKAMAEGRPCREVLRNYRKDGSAFWNELSITPVKSDFDQRTYFIGIQKDVSRQVELERELAELRARPKPDERA
notes: PpSB1-LOV, short LOV protein of Pseudomonas putida: LOV core domain flanked by N- and C-terminal helices; mutant R66I; It says that the N-terminal 20 and the C-terminal 8-9 amino acids are disordered in the wild-type crystal structures; also called PpSB1-R66I; PpSB1-LOV mutant R66I; source: purified (Ni-NTA Superflow, SEC on Superdex 200)
- stoichiometry N [1]: 2

B2: PpSB1-LOV-R61H/R66I (natural protein, Pseudomonas putida)
chain: B1 chain with R61H
notes: PpSB1-LOV, short LOV protein of Pseudomonas putida; double mutant R61H/R66I; dark-state crystal structure PDB 6GG9; also called PpSB1-R61H/R66I-LOV; double mutant
- binding result [2]: binds

Source: article PMC6047819, “Small-angle X-ray scattering study of the kinetics of light-dark transition in a LOV protein” (PLoS ONE, 2018)
